# B1: TCR Msln530-B11 (TCR, V domains shown)
# V domain 1: ETGVTQSPTHLIKTRGQQVTLRCSSQSGHNTVSWYQQALGQGPQFIFQYYREEENGRGNFPPRFSGLQFPNYSSELNVNALELDDSALYLCASSFAGGRSDTQYFGPGTRLTVLE
# V domain 2: KQEVTQIPAALSVPEGENLVLNCSFTDSAIYNLQWFRQDPGKGLTSLLLIQSSQREQTSGRLNASLDKSSGRSTLYIAASQPGDSATYLCAVRLLFAQGGSEKLVFGKGTKLTVNP
# Target: peptide #10 (from the gene EHF) presented on peptide-pulsed T2 target cells (human, UniProt P61769 21-119)
# Assay: cell-based or functional assay
binder,measurement,value
B1,"EC50 of peptide for IFN-γ production, ratio to the EC50 for Msln530",> 3000 fold (EC50 for peptide #10 over EC50 for Msln530)
